# Experimental data taken from paper PMC7951984.
# Ends that are not written are not given here.
# B1: Plutella xylostella tachykinin peptide 1 (PxTK1) (peptide)
# peptide: APSGFLGMR
# modifications: ends and bridges not checked
# Target: Plutella xylostella tachykinin receptor (PxTKR) (Plutella xylostella)
row,Molecule,"EC50 of the cAMP response (cAMP-Glo assay) of HEK293 cells stably expressing PxTKR, peptide from 10 pM to 100 μM [nM]"
1,Plutella xylostella tachykinin peptide 3 (PxTK3),87.7
2,B1,32
